Source: the RNAGym collection of RNA variant scans (doi:10.1073/pnas.2313332121)

B1: TPR t1 (parent)
chain: GACCAAUCUGCCCUCAGAGCUCGAGAACAUCUUCGGAUGCAGAGGAGGCAGGCUUCGGUGGCGCGAUAGCGCCAACGUCCUCAACCUCCAAUGCAUCCCACCACAUGAUGAUGCCUGAAGAGCCUUGGUUUUUUG

Variants of: B1
Test: polymerase ribozyme fitness, log enrichment relative to wild type (log ratio); higher = more active; in vitro selection for triplet polymerase activity
Summary of the method: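 Mutant libraries for each subunit of a heterodimeric triplet polymerase ribozyme were made by PCR and then transcribed. Each library underwent one round of in vitro selection in triplicate: annealing with a biotinylated primer, the partner subunit and triplets, frozen incubation at −7 °C, gel excision of extended constructs, streptavidin-bead capture and RT-PCR. Input and output libraries were Illumina-sequenced, and only genotypes with ≥10 input reads and ≥1 read per output were kept. Fitness is the logarithm, base 2, of genotype enrichment over wild-type enrichment, computed from inverse-variance-weighted replicate averages.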

In order of falling “polymerase ribozyme fitness (log ratio)” value:
1. GACCAAUCUGCCCUCAGAGCUCGAGAACAUCUUCGGAUGCAGAGGAGGCAGGCUUCGGUGGCGCGAUAGCGCCAACGUCCUCAACCUCCAAUGCAUCCCACCACAUGAUGAUGCCUGAAGUGUCUUGGUUUUUUG [A121U C123U]  2.27
2. GACCAAUCUGCCCUCAGAGCUCGAGAACAUCUUCGGAUGCAGAGGAGGCAGGCUUCGGUGGCGCGAUAGCGCCAACGUCCUCAACCUCCAAUGCAUCCCACCACAUGAUGAUGCCUGAAAAGCAUUGGUUUUUUG [G120A C124A]  2.09
3. GACCAAUCUGCCCUCAGAGCUCGAGAACAUCUUCGGAUGCAGAGGAGGCAGGCUUCGGUGGCGCGAUAGCGCCAACGUCCUCAACCUCCAAUGCAUCCCACCACAUGAUGAUGCCUGAAGUGCCUUGGUGUUUUG [A121U U130G]  1.98
4. GACCAAUCUGCCCUCAGAGCUCGAGAACAUCUUCGGAUGCAGAGGAGGCAGGCUUCGGUGGCGCGAUAGCGCCAACGUCCUCAACCUCCAAUGCAUCCCACCACAUGAUGAUGCCUGAAGAAGCUUGGUUUUUUG [G122A C123G]  1.74
5. GACCAAUCUGCCCUCAGAGCUCGAGAACAUCUUCGGAUGCAGAGGAGGCAGGCUUCGGUGGCGCGAUAGCGCCAACGUCCUCAACCUCCAAUGCAUCCCACCACAUGAUGAUGCCUGAAGGGCCUUGGUUUUGUG [A121G U133G]  1.55
6. GACCAAUCUGCCCUCAGAGCUCGAGAACAUCUUCGGAUGCAGAGGAGGCAGGCUUCGGUGGCGCGAUAGCGCCAACGUCCUCAACCUCCAAUGCAUCCCACCACAUGAUGAUGCCUGAACAGCCUUGGUUUCUUG [G120C U132C]  1.38
7. GACCAAUCUGCCCUCAGAGCUCGAGAACAUCUUCGGAUGCAGAGGAGGCAGGCUUCGGUGGCGCGAUAGCGCCAACGUCCUCAACCUCCAAUGCAUCCCACCACAUGAUGAUGCCUGAGAAGCCUUGGUUUUUUG [A119G G120A]  1.35
8. GACCAAUCUGCCCUCAGAGCUCGAGAACAUCUUCGGAUGCAGAGGAGGCAGGCUUCGGUGGCGCGAUAGCGCCAACGUCCUCAACCUCCAAUGCAUCCCACCACAUGAUGAUGCCUGAAGAGCAUUGGUAUUUUG [C124A U130A]  1.09
9. GACCAAUCUGCCCUCAGAGCUCGAGAACAUCUUCGGAUGCAGAGGAGGCAGGCUUCGGUGGCGCGAUAGCGCCAACGUCCUCAACCUCCAAUGCAUCCCACCACAUGAUGAUGCCUGAACAGCAUUGGUUUUUUG [G120C C124A]  1.02
10. GACCAAUCUGCCCUCAGAGCUCGAGAACAUCUUCGGAUGCAGAGGAGGCAGGCUUCGGUGGCGCGAUAGCGCCAACGUCCUCAACCUCCAAUGCAUCCCACCACAUGAUGAUGCCUGAAGAGCGUUGGUUUUAUG [C124G U133A]  0.826
11. GACCAAUCUGCCCUCAGAGCUCGAGAACAUCUUCGGAUGCAGAGGAGGCAGGCUUCGGUGGCGCGAUAGCGCCAACGUCCUCAACCUCCAAUGCAUCCCACCACAUGAUGAUGCCUGAAGCUCCUUGGUUUUUUG [A121C G122U]  0.743
12. GACCAAUCUGCCCUCAGAGCUCGAGAACAUCUUCGGAUGCAGAGGAGGCAGGCUUCGGUGGCGCGAUAGCGCCAACGUCCUCAACCUCCAAUGCAUCCCACCACAUGAUGAUGCCUGAAGAGACUAGGUGUUGUG [C123A U126A U130G U133G]  0.742
13. GACCAAUCUGCCCUCAGAGCUCGAGAACAUCUUCGGAUGCAGAGGAGGCAGGCUUCGGUGGCGCGAUAGCGCCAACGUCCUCAACCUCCAAUGCAUCCCACCACAUGAUGAUGCCUGAAAAGCCUUGGUAUUUUG [G120A U130A]  0.684
14. GACCAAUCUGCCCUCAGAGCUCGAGAACAUCUUCGGAUGCAGAGGAGGCAGGCUUCGGUGGCGCGAUAGCGCCAACGUCCUCAACCUCCAAUGCAUCCCACCACAUGAUGAUGCCUGAAGAGCGAUGGUUUUUCG [C124G U125A U134C]  0.622
15. GACCAAUCUGCCCUCAGAGCUCGAGAACAUCUUCGGAUGCAGAGGAGGCAGGCUUCGGUGGCGCGAUAGCGCCAACGUCCUCAACCUCCAAUGCAUCCCACCACAUGAUGAUGCCUGAAAAGCCUAGGUUGUUUG [G120A U126A U131G]  0.608
16. GACCAAUCUGCCCUCAGAGCUCGAGAACAUCUUCGGAUGCAGAGGAGGCAGGCUUCGGUGGCGCGAUAGCGCCAACGUCCUCAACCUCCAAUGCAUCCCACCACAUGAUGAUGCCUGAAUAGCCAUGGUUUUUUG [G120U U125A]  0.531
17. GACCAAUCUGCCCUCAGAGCUCGAGAACAUCUUCGGAUGCAGAGGAGGCAGGCUUCGGUGGCGCGAUAGCGCCAACGUCCUCAACCUCCAAUGCAUCCCACCACAUGAUGAUGCCUGAAGGGCCUUGGUUUUUUU [A121G G135U]  0.495
18. GACCAAUCUGCCCUCAGAGCUCGAGAACAUCUUCGGAUGCAGAGGAGGCAGGCUUCGGUGGCGCGAUAGCGCCAACGUCCUCAACCUCCAAUGCAUCCCACCACAUGAUGAUGCCUGGAGAUCCUUGGUUUUUUG [A118G G122U]  0.311
19. GACCAAUCUGCCCUCAGAGCUCGAGAACAUCUUCGGAUGCAGAGGAGGCAGGCUUCGGUGGCGCGAUAGCGCCAACGUCCUCAACCUCCAAUGCAUCCCACCACAUGAUGAUGCCUGAAGAAUCUUGGUUUUUUG [G122A C123U]  0.258
20. GACCAAUCUGCCCUCAGAGCUCGAGAACAUCUUCGGAUGCAGAGGAGGCAGGCUUCGGUGGCGCGAUAGCGCCAACGUCCUCAACCUCCAAUGCAUCCCACCACAUGAUGAUGCCUGAAGAGACUUGGUAUUUUG [C123A U130A]  0.213
21. GACCAAUCUGCCCUCAGAGCUCGAGAACAUCUUCGGAUGCAGAGGAGGCAGGCUUCGGUGGCGCGAUAGCGCCAACGUCCUCAACCUCCAAUGCAUCCCACCACAUGAUGAUGCCUGAACAGCCUUGGUAUUUUG [G120C U130A]  0.0796
22. GACCAAUCUGCCCUCAGAGCUCGAGAACAUCUUCGGAUGCAGAGGAGGCAGGCUUCGGUGGCGCGAUAGCGCCAACGUCCUCAACCUCCAAUGCAUCCCACCACAUGAUGAUGCCUGAAGAGUCUAGGUUUUUUG [C123U U126A]  0.0607
23. GACCAAUCUGCCCUCAGAGCUCGAGAACAUCUUCGGAUGCAGAGGAGGCAGGCUUCGGUGGCGCGAUAGCGCCAACGUCCUCAACCUCCAAUGCAUCCCACCACAUGAUGAUGCCUGAAUAGCCUUGGUCUUUUG [G120U U130C]  0.002
24. GACCAAUCUGCCCUCAGAGCUCGAGAACAUCUUCGGAUGCAGAGGAGGCAGGCUUCGGUGGCGCGAUAGCGCCAACGUCCUCAACCUCCAAUGCAUCCCACCACAUGAUGAUGCCUGAAAAGCCUUGGUUUUUUA [G120A G135A]  -0.0112
25. GACCAAUCUGCCCUCAGAGCUCGAGAACAUCUUCGGAUGCAGAGGAGGCAGGCUUCGGUGGCGCGAUAGCGCCAACGUCCUCAACCUCCAAUGCAUCCCACCACAUGAUGAUGCCUGAACAGCCUAGGUUUUUUG [G120C U126A]  -0.0406
26. GACCAAUCUGCCCUCAGAGCUCGAGAACAUCUUCGGAUGCAGAGGAGGCAGGCUUCGGUGGCGCGAUAGCGCCAACGUCCUCAACCUCCAAUGCAUCCCACCACAUGAUGAUGCCUGAAGAGCCAUGGUUUUCUG [U125A U133C]  -0.0467
27. GACCAAUCUGCCCUCAGAGCUCGAGAACAUCUUCGGAUGCAGAGGAGGCAGGCUUCGGUGGCGCGAUAGCGCCAACGUCCUCAACCUCCAAUGCAUCCCACCACAUGAUGAUGCCUGGAGAGCGUUGGUUUUUUG [A118G C124G]  -0.0684
28. GACCAAUCUGCCCUCAGAGCUCGAGAACAUCUUCGGAUGCAGAGGAGGCAGGCUUCGGUGGCGCGAUAGCGCCAACGUCCUCAACCUCCAAUGCAUCCCACCACAUGAUGAUGCCUGUAUAGCCUUGGUUUUGUG [A118U G120U U133G]  -0.107
29. GACCAAUCUGCCCUCAGAGCUCGAGAACAUCUUCGGAUGCAGAGGAGGCAGGCUUCGGUGGCGCGAUAGCGCCAACGUCCUCAACCUCCAAUGCAUCCCACCACAUGAUGAUGCCUUAAGAGCAUUGGUUUUUUG [G117U C124A]  -0.212
30. GACCAAUCUGCCCUCAGAGCUCGAGAACAUCUUCGGAUGCAGAGGAGGCAGGCUUCGGUGGCGCGAUAGCGCCAACGUCCUCAACCUCCAAUGCAUCCCACCACAUGAUGAUGCCUGAAGAGGCUUAGUUUUUUG [C123G G127A]  -0.249
31. GACCAAUCUGCCCUCAGAGCUCGAGAACAUCUUCGGAUGCAGAGGAGGCAGGCUUCGGUGGCGCGAUAGCGCCAACGUCCUCAACCUCCAAUGCAUCCCACCACAUGAUGAUGCCUGAAGAGACGUGGUUUUUUG [C123A U125G]  -0.261
32. GACCAAUCUGCCCUCAGAGCUCGAGAACAUCUUCGGAUGCAGAGGAGGCAGGCUUCGGUGGCGCGAUAGCGCCAACGUCCUCAACCUCCAAUGCAUCCCACCACAUGAUGAUGCCUGAAAAGACUUGGUUUUUUG [G120A C123A]  -0.268
33. GACCAAUCUGCCCUCAGAGCUCGAGAACAUCUUCGGAUGCAGAGGAGGCAGGCUUCGGUGGCGCGAUAGCGCCAACGUCCUCAACCUCCAAUGCAUCCCACCACAUGAUGAUGCCUGAAAAGCCUUGGGUUUUUG [G120A U129G]  -0.391
34. GACCAAUCUGCCCUCAGAGCUCGAGAACAUCUUCGGAUGCAGAGGAGGCAGGCUUCGGUGGCGCGAUAGCGCCAACGUCCUCAACCUCCAAUGCAUCCCACCACAUGAUGAUGCCUGAAAAGCCUUGAUUUUUUG [G120A G128A]  -0.497
35. GACCAAUCUGCCCUCAGAGCUCGAGAACAUCUUCGGAUGCAGAGGAGGCAGGCUUCGGUGGCGCGAUAGCGCCAACGUCCUCAACCUCCAAUGCAUCCCACCACAUGAUGAUGCCUGCAGAGCGUUGGUUUUUUG [A118C C124G]  -0.56
36. GACCAAUCUGCCCUCAGAGCUCGAGAACAUCUUCGGAUGCAGAGGAGGCAGGCUUCGGUGGCGCGAUAGCGCCAACGUCCUCAACCUCCAAUGCAUCCCACCACAUGAUGAUGCCUGAAAAGCCUUCGUUUUUUU [G120A G127C G135U]  -0.669
37. GACCAAUCUGCCCUCAGAGCUCGAGAACAUCUUCGGAUGCAGAGGAGGCAGGCUUCGGUGGCGCGAUAGCGCCAACGUCCUCAACCUCCAAUGCAUCCCACCACAUGAUGAUGCCUGAAUAGCCUGGGUUUAUUG [G120U U126G U132A]  -0.734
38. GACCAAUCUGCCCUCAGAGCUCGAGAACAUCUUCGGAUGCAGAGGAGGCAGGCUUCGGUGGCGCGAUAGCGCCAACGUCCUCAACCUCCAAUGCAUCCCACCACAUGAUGAUGCCUGAAGAGCUUUAGUUUUUUU [C124U G127A G135U]  -0.796
39. GACCAAUCUGCCCUCAGAGCUCGAGAACAUCUUCGGAUGCAGAGGAGGCAGGCUUCGGUGGCGCGAUAGCGCCAACGUCCUCAACCUCCAAUGCAUCCCACCACAUGAUGAUGCCUGAAGAGCCAUGGUUUUAUG [U125A U133A]  -0.956
40. GACCAAUCUGCCCUCAGAGCUCGAGAACAUCUUCGGAUGCAGAGGAGGCAGGCUUCGGUGGCGCGAUAGCGCCAACGUCCUCAACCUCCAAUGCAUCCCACCACAUGAUGAUGCCUGAAUAGCCUUGGGUUUUUG [G120U U129G]  -1.17
41. GACCAAUCUGCCCUCAGAGCUCGAGAACAUCUUCGGAUGCAGAGGAGGCAGGCUUCGGUGGCGCGAUAGCGCCAACGUCCUCAACCUCCAAUGCAUCCCACCACAUGAUGAUGCCUGAAUAGCCUUGGUUAUUUG [G120U U131A]  -1.19
42. GACCAAUCUGCCCUCAGAGCUCGAGAACAUCUUCGGAUGCAGAGGAGGCAGGCUUCGGUGGCGCGAUAGCGCCAACGUCCUCAACCUCCAAUGCAUCCCACCACAUGAUGAUGCCUGUAGAGCCUUCGUUUUUUG [A118U G127C]  -1.35
